# Assay results published in the Human Domainome abundance scans (Beltran et al. 2025).
# ± gives the uncertainty stated by the source.
# B1: POU domain, class 4, transcription factor 2, residues 256 to 327; numbered along this chain, Q12837 (parent)
# chain: RDLEAFAERFKQRRIKLGVTQADVGSALANLKIPGVGSLSQSTICRFESLTLSHNNMIALKPILQAWLEEAE
# Variants of: B1
# Assay: abundance fitness (aPCA) (normalised: wild type 0, dead -1); higher = more abundant; growth selection in yeast, the domain comes from the species named
# Conditions: Homo sapiens
row,Variant,abundance fitness
1,W67Q,0.108 ± 0.3
2,I33M,-0.162 ± 0.094
3,I33Y,-0.126 ± 0.11
4,I33F,-0.211 ± 0.093
5,I33T,-0.311 ± 0.069
6,I33Q,-0.426 ± 0.17
7,I33G,-0.116 ± 0.11
8,E8P,-0.862 ± 0.097
9,E8D,-0.172 ± 0.079
10,E8Q,-0.091 ± 0.079
11,E8W,-0.208 ± 0.074
12,E8F,-0.306 ± 0.16
13,A29D,0.03 ± 0.44
14,A29H,-0.198 ± 0.1
15,A29K,0.042 ± 0.1
16,A29W,-0.799 ± 0.22
17,I15P,-0.569 ± 0.087
18,I15Q,-0.066 ± 0.034
19,I15L,-0.101 ± 0.064
20,I15W,-0.461 ± 0.094
21,I15F,-0.36 ± 0.11
22,E4V,-0.085 ± 0.058
23,E4K,-0.137 ± 0.089
24,E4D,-0.282 ± 0.11

row,Variant,abundance fitness
1,E4Y,0.13 ± 0.12
2,E4A,-0.048 ± 0.057
3,E4I,-0.002 ± 0.1
4,E4H,-0.119 ± 0.12
5,E4W,-0.234 ± 0.075
6,E4R,-0.137 ± 0.054
7,E4S,-0.141 ± 0.061
8,F10I,-0.632 ± 0.3
9,F10T,-0.707 ± 0.12
10,F10L,-0.921 ± 0.14
11,F10S,-1 ± 0.16
12,L39K,-0.141 ± 0.16
13,L39S,-0.304 ± 0.062
14,L39M,-0.01 ± 0.087
15,L39W,-0.387 ± 0.12
16,E69V,-0.178 ± 0.095
17,E69G,-0.18 ± 0.07
18,E69T,-0.133 ± 0.095
19,E69K,-0.458 ± 0.24
20,E69Y,-0.367 ± 0.13
21,T51H,-0.232 ± 0.36
22,T51E,-0.059 ± 0.17
23,T51W,-0.78 ± 0.37
24,T51L,-0.256 ± 0.064

row,Variant,abundance fitness
1,T51A,-0.035 ± 0.033
2,T51Q,-0.041 ± 0.086
3,T51D,-0.295 ± 0.39
4,E70G,-0.313 ± 0.08
5,E70Y,-0.028 ± 0.48
6,E70D,-0.212 ± 0.15
7,L64M,-0.371 ± 0.095
8,L64A,-0.902 ± 0.2
9,L64Q,-0.75 ± 0.17
10,K11W,-0.701 ± 0.2
11,K11G,-0.678 ± 0.093
12,K11H,-0.901 ± 0.25
13,Q12F,-0.298 ± 0.21
14,Q12I,-0.063 ± 0.13
15,Q12A,0.045 ± 0.056
16,Q12V,-0.232 ± 0.091
17,E72H,-0.38 ± 0.18
18,E72V,-0.419 ± 0.2
19,D23Q,0.047 ± 0.074
20,D23W,-0.495 ± 0.085
21,D23N,-0.119 ± 0.19
22,D23S,-0.068 ± 0.054
23,D23K,0.09 ± 0.11
24,V24R,-0.76 ± 0.09

row,Variant,abundance fitness
1,V24E,-0.88 ± 0.39
2,V24W,-0.781 ± 0.11
3,V24P,-0.928 ± 0.24
4,V24Q,-1.02 ± 0.28
5,V24S,-0.8 ± 0.12
6,C45H,0.039 ± 0.11
7,C45L,-0.157 ± 0.057
8,C45E,0.156 ± 0.14
9,C45N,0.091 ± 0.13
10,C45Q,0.119 ± 0.11
11,C45K,-0.098 ± 0.14
12,N55R,-0.055 ± 0.043
13,N55T,-0.024 ± 0.074
14,N55S,0.013 ± 0.051
15,N55I,-0.197 ± 0.13
16,N55F,-0.396 ± 0.13
17,L60A,-0.147 ± 0.11
18,L60C,-0.12 ± 0.07
19,L60M,-0.038 ± 0.049
20,L60R,-0.607 ± 0.056
21,L60E,-0.866 ± 0.21
22,L60P,-0.971 ± 0.23
23,L60N,-0.682 ± 0.25
24,G18W,-0.778 ± 0.14

row,Variant,abundance fitness
1,G18A,-0.593 ± 0.2
2,G18K,-0.47 ± 0.14
3,G18F,-0.892 ± 0.41
4,I44C,-0.643 ± 0.33
5,I44D,-0.771 ± 0.4
6,I44R,-0.973 ± 0.22
7,I44W,-1.03 ± 0.37
8,I44S,-0.963 ± 0.28
9,H54N,-0.138 ± 0.1
10,H54W,-0.119 ± 0.088
11,H54T,0.06 ± 0.087
12,H54S,-0.145 ± 0.068
13,H54F,-0.086 ± 0.11
14,Q65S,-0.028 ± 0.058
15,Q65E,0.058 ± 0.092
16,Q65T,-0.19 ± 0.08
17,Q65W,-0.504 ± 0.18
18,R1P,-0.199 ± 0.33
19,R1W,-0.143 ± 0.12
20,R1L,-0.354 ± 0.2
21,R1E,0.368 ± 0.47
22,R1S,-0.235 ± 0.087
23,R1G,0.055 ± 0.078
24,E48A,-0.802 ± 0.13

row,Variant,abundance fitness
1,T43S,-0.353 ± 0.078
2,T43V,-0.01 ± 0.064
3,T43G,-0.792 ± 0.1
4,T43F,-0.289 ± 0.21
5,T43W,-0.282 ± 0.092
6,A66E,-0.007 ± 0.067
7,A66M,-0.246 ± 0.098
8,A66D,0.098 ± 0.12
9,A66G,-0.08 ± 0.055
10,A66V,-0.153 ± 0.065
11,R13E,-0.03 ± 0.09
12,R13G,-0.067 ± 0.069
13,R13H,-0.115 ± 0.082
14,R13A,0.066 ± 0.05
15,R13L,-0.223 ± 0.057
16,A27S,-0.114 ± 0.048
17,A27M,-0.234 ± 0.092
18,A27V,-0.265 ± 0.092
19,A27N,-0.323 ± 0.14
20,A27C,-0.215 ± 0.095
21,A27F,-0.114 ± 0.19
22,V19F,-0.103 ± 0.13
23,V19L,0.004 ± 0.049
24,S49P,-0.537 ± 0.099

row,Variant,abundance fitness
1,S49N,-0.065 ± 0.19
2,S49M,-0.492 ± 0.36
3,S49K,0.069 ± 0.3
4,G37L,-0.205 ± 0.074
5,G37K,-0.209 ± 0.11
6,G37I,-0.587 ± 0.28
7,G37F,-0.398 ± 0.12
8,G37P,-0.2 ± 0.1
9,G37Q,-0.015 ± 0.097
10,G37Y,-0.418 ± 0.23
11,L52K,-0.163 ± 0.17
12,L52Q,-1.08 ± 0.32
13,L3W,-0.283 ± 0.081
14,L3V,-0.153 ± 0.061
15,A7M,-0.774 ± 0.3
16,A7G,-0.639 ± 0.065
17,A7N,-0.907 ± 0.41
18,L17K,-0.286 ± 0.24
19,L17D,-0.681 ± 0.35
20,L17R,-0.733 ± 0.074
21,L17Q,-0.513 ± 0.1
22,S40T,0.092 ± 0.1
23,S40V,-0.385 ± 0.076
